Laboratory results reported in publication PMC7057950 (Nature Communications, 2020).

B1: human Hsp90β K607A (natural protein)
chain: not shown
notes: Hsp90β, human; pET28 vector, site-directed mutagenesis; source: E. coli BL21 (DE3) cod+, purified (HisTrap, Resource Q, Superdex 200)
B2: human Hsp90β K607R (natural protein)
chain: not shown
notes: as for B1
B3: human Hsp90β K607I (natural protein)
chain: not shown
notes: as for B1
B4: human Hsp90β K607E (natural protein)
chain: not shown
notes: as for B1

Biological target: the molecule itself
Assay: SEC; Hsp90 dimerization assay: dilution series on Superdex 200 increase 10/300 GL (Shimadzu HPLC), fluorescence detection, 25 °C, 40 mM Hepes pH 7.5, 150 mM KCl, 5 mM MgCl2, 2 mM DTT; human Hsp90β 2 nM to 4 µM, yeast Hsp90 16 nM to 2 µM; KD = KD(app) divided by the dilution factor (about 4); dimer to monomers
B1: binds. B2: binds. B3: binds. B4: binds.
